Laboratory results published in article PMC12866175 (European journal of nuclear medicine and molecular imaging, 2021).

Experiment: Radiation dosimetry and clearance kinetics from biodistribution data
Format: in vivo, BALB/c mice
Conditions: for Total absorbed dose/injected activity: sum of five α-emitting radionuclides

In the case of `C[C@@H](O)[C@H](NC(=O)[C@@H]1CSSC[C@H](NC(=O)[C@@H](Cc2ccccc2)NC(=O)CN2CCN(CC(=O)O)CCN(CC(=O)O)CCN(CC(=O)O)CC2)C(=O)N[C@@H](Cc2ccc(O)cc2)C(=O)N[C@H](Cc2c[nH]c3ccccc23)C(=O)N[C@@H](CCCCN)C(=O)N[C@@H]([C@@H](C)O)C(=O)N1)C(=O)O` [[^225Ac]Ac-DOTA-TATE, metal not drawn], the “Initial activity/organ, A○” value (^217At, Muscle) is reported as 0.0052 kBq, the Absorbed dose/injected activity (^217At, Pancreas) is reported as 0.0003 Gy/kBq and the “Accumulated activity/organ, A~” value (^217At, Pancreas) is reported as 1.1933 kBq×h. For the same compound, the “Decay rate constant, λeff” value (^217At, Pancreas) was 0.0080 h⁻¹, the “Initial activity/organ, A○” value (^217At, Pancreas) was 0.0169 kBq and the Absorbed dose/injected activity (^217At, Salivary) was 0.0002 Gy/kBq. For the same compound, the “Accumulated activity/organ, A~” value (^217At, Salivary) was 0.7036 kBq×h, the “Decay rate constant, λeff” value (^217At, Salivary) was -0.0028 h⁻¹ and the “Initial activity/organ, A○” value (^217At, Salivary) was 0.0037 kBq. The Absorbed dose/injected activity (^217At, Skin) was 0.0001 Gy/kBq, the “Accumulated activity/organ, A~” value (^217At, Skin) was 0.6489 kBq×h and the “Decay rate constant, λeff” value (^217At, Skin) was -0.0015 h⁻¹. For the same compound, the “Initial activity/organ, A○” value (^217At, Skin) was 0.0039 kBq, the Absorbed dose/injected activity (^217At, Spleen) was 0.0004 Gy/kBq and the “Accumulated activity/organ, A~” value (^217At, Spleen) was 1.0604 kBq×h. The “Decay rate constant, λeff” value (^217At, Spleen) was 0.0030 h⁻¹, the “Initial activity/organ, A○” value (^217At, Spleen) was 0.0097 kBq and the Absorbed dose/injected activity (^217At, Stomach) was 0.0005 Gy/kBq. The “Accumulated activity/organ, A~” value (^217At, Stomach) was 3.0452 kBq×h, the “Decay rate constant, λeff” value (^217At, Stomach) was 0.0170 h⁻¹ and the Absorbed dose/injected activity (^221Fr, Blood) was 0.0001 Gy/kBq. For the same compound, the “Accumulated activity/organ, A~” value (^221Fr, Blood) was 0.5594 kBq×h, the “Decay rate constant, λeff” value (^221Fr, Blood) was -0.0071 h⁻¹ and the “Initial activity/organ, A○” value (^221Fr, Blood) was 0.0019 kBq. For the same compound, the Absorbed dose/injected activity (^221Fr, Bone) was 0.0003 Gy/kBq, the “Accumulated activity/organ, A~” value (^221Fr, Bone) was 1.0195 kBq×h and the “Decay rate constant, λeff” value (^221Fr, Bone) was 0.0100 h⁻¹. The “Initial activity/organ, A○” value (^221Fr, Bone) was 0.0170 kBq, the Absorbed dose/injected activity (^221Fr, Brain) was 0.0001 Gy/kBq and the “Accumulated activity/organ, A~” value (^221Fr, Brain) was 0.7934 kBq×h. The “Decay rate constant, λeff” value (^221Fr, Brain) was -0.0044 h⁻¹, the “Initial activity/organ, A○” value (^221Fr, Brain) was 0.0036 kBq and the Absorbed dose/injected activity (^221Fr, Heart) was 0.0000 Gy/kBq. For the same compound, the “Accumulated activity/organ, A~” value (^221Fr, Heart) was 0.2102 kBq×h, the “Decay rate constant, λeff” value (^221Fr, Heart) was 0.0190 h⁻¹ and the “Initial activity/organ, A○” value (^221Fr, Heart) was 0.0067 kBq. For the same compound, the Absorbed dose/injected activity (^221Fr, Intestine) was 0.0002 Gy/kBq, the “Accumulated activity/organ, A~” value (^221Fr, Intestine) was 7.2991 kBq×h and the “Decay rate constant, λeff” value (^221Fr, Intestine) was 0.0130 h⁻¹. The Absorbed dose/injected activity (^221Fr, Kidney) was 0.0019 Gy/kBq, the “Accumulated activity/organ, A~” value (^221Fr, Kidney) was 12.5136 kBq×h and the “Decay rate constant, λeff” value (^221Fr, Kidney) was 0.0190 h⁻¹. The “Initial activity/organ, A○” value (^221Fr, Kidney) was 0.4011 kBq, the Absorbed dose/injected activity (^221Fr, Liver) was 0.0014 Gy/kBq and the “Accumulated activity/organ, A~” value (^221Fr, Liver) was 32.1637 kBq×h. The “Decay rate constant, λeff” value (^221Fr, Liver) was -0.0033 h⁻¹, the “Initial activity/organ, A○” value (^221Fr, Liver) was 0.1612 kBq and the Absorbed dose/injected activity (^221Fr, Lung) was 0.0003 Gy/kBq. The “Accumulated activity/organ, A~” value (^221Fr, Lung) was 1.7734 kBq×h, the “Decay rate constant, λeff” value (^221Fr, Lung) was 0.0080 h⁻¹ and the “Initial activity/organ, A○” value (^221Fr, Lung) was 0.0251 kBq. The Absorbed dose/injected activity (^221Fr, Muscle) was 0.0000 Gy/kBq, the “Accumulated activity/organ, A~” value (^221Fr, Muscle) was 0.1848 kBq×h and the “Decay rate constant, λeff” value (^221Fr, Muscle) was 0.0170 h⁻¹. The “Initial activity/organ, A○” value (^221Fr, Muscle) was 0.0052 kBq, the Absorbed dose/injected activity (^221Fr, Pancreas) was 0.0003 Gy/kBq and the “Accumulated activity/organ, A~” value (^221Fr, Pancreas) was 1.1933 kBq×h. The “Decay rate constant, λeff” value (^221Fr, Pancreas) was 0.0080 h⁻¹, the “Initial activity/organ, A○” value (^221Fr, Pancreas) was 0.0169 kBq and the Absorbed dose/injected activity (^221Fr, Salivary) was 0.0002 Gy/kBq. The “Accumulated activity/organ, A~” value (^221Fr, Salivary) was 0.7036 kBq×h, the “Decay rate constant, λeff” value (^221Fr, Salivary) was -0.0028 h⁻¹ and the “Initial activity/organ, A○” value (^221Fr, Salivary) was 0.0037 kBq. The Absorbed dose/injected activity (^221Fr, Skin) was 0.0001 Gy/kBq, the “Accumulated activity/organ, A~” value (^221Fr, Skin) was 0.6489 kBq×h and the “Decay rate constant, λeff” value (^221Fr, Skin) was -0.0015 h⁻¹. The “Initial activity/organ, A○” value (^221Fr, Skin) was 0.0039 kBq, the Absorbed dose/injected activity (^221Fr, Spleen) was 0.0004 Gy/kBq and the “Accumulated activity/organ, A~” value (^221Fr, Spleen) was 1.0604 kBq×h. For the same compound, the “Decay rate constant, λeff” value (^221Fr, Spleen) was 0.0030 h⁻¹, the “Initial activity/organ, A○” value (^221Fr, Spleen) was 0.0097 kBq and the Absorbed dose/injected activity (^221Fr, Stomach) was 0.0004 Gy/kBq. The “Accumulated activity/organ, A~” value (^221Fr, Stomach) was 3.0452 kBq×h, the “Decay rate constant, λeff” value (^221Fr, Stomach) was 0.0170 h⁻¹ and the “Initial activity/organ, A○” value (^221Fr, Stomach) was 0.0852 kBq. For the same compound, the “lower effective half-life of kidneys compared to liver” value (^225Ac) was ~5 fold, the Absorbed dose/injected activity (^225Ac, Blood) was 0.0000 Gy/kBq and the “Accumulated activity/organ, A~” value (^225Ac, Blood) was 0.0080 kBq×h. The “Decay rate constant, λeff” value (^225Ac, Blood) was 0.0206 h⁻¹, the “Initial activity/organ, A○” value (^225Ac, Blood) was 0.0003 kBq and the Absorbed dose/injected activity (^225Ac, Bone) was 0.0004 Gy/kBq. The “Accumulated activity/organ, A~” value (^225Ac, Bone) was 1.4274 kBq×h, the “Decay rate constant, λeff” value (^225Ac, Bone) was 0.0030 h⁻¹ and the “Initial activity/organ, A○” value (^225Ac, Bone) was 0.0131 kBq. For the same compound, the Absorbed dose/injected activity (^225Ac, Brain) was 0.0001 Gy/kBq, the “Accumulated activity/organ, A~” value (^225Ac, Brain) was 0.8190 kBq×h and the “Decay rate constant, λeff” value (^225Ac, Brain) was -0.0103 h⁻¹. For the same compound, the “Initial activity/organ, A○” value (^225Ac, Brain) was 0.0019 kBq, the Absorbed dose/injected activity (^225Ac, Heart) was 0.0001 Gy/kBq and the “Accumulated activity/organ, A~” value (^225Ac, Heart) was 0.4871 kBq×h. For the same compound, the “Decay rate constant, λeff” value (^225Ac, Heart) was -0.0004 h⁻¹, the “Initial activity/organ, A○” value (^225Ac, Heart) was 0.0033 kBq and the Absorbed dose/injected activity (^225Ac, Intestine) was 0.0001 Gy/kBq. The “Accumulated activity/organ, A~” value (^225Ac, Intestine) was 4.4589 kBq×h, the “Decay rate constant, λeff” value (^225Ac, Intestine) was 0.0200 h⁻¹ and the “Initial activity/organ, A○” value (^225Ac, Intestine) was 0.1527 kBq. For the same compound, the Absorbed dose/injected activity (^225Ac, Kidney) was 0.0012 Gy/kBq, the “Accumulated activity/organ, A~” value (^225Ac, Kidney) was 8.2462 kBq×h and the “Decay rate constant, λeff” value (^225Ac, Kidney) was 0.0250 h⁻¹. The “Initial activity/organ, A○” value (^225Ac, Kidney) was 0.3862 kBq, the Absorbed dose/injected activity (^225Ac, Liver) was 0.0012 Gy/kBq and the “Accumulated activity/organ, A~” value (^225Ac, Liver) was 29.4458 kBq×h. For the same compound, the “Decay rate constant, λeff” value (^225Ac, Liver) was -0.0053 h⁻¹, the “Initial activity/organ, A○” value (^225Ac, Liver) was 0.1200 kBq and the Absorbed dose/injected activity (^225Ac, Lung) was 0.0001 Gy/kBq. For the same compound, the “Accumulated activity/organ, A~” value (^225Ac, Lung) was 1.0829 kBq×h, the “Decay rate constant, λeff” value (^225Ac, Lung) was 0.0130 h⁻¹ and the “Initial activity/organ, A○” value (^225Ac, Lung) was 0.0227 kBq. For the same compound, the Absorbed dose/injected activity (^225Ac, Muscle) was 0.0001 Gy/kBq, the “Accumulated activity/organ, A~” value (^225Ac, Muscle) was 0.5613 kBq×h and the “Decay rate constant, λeff” value (^225Ac, Muscle) was -0.0049 h⁻¹. The “Initial activity/organ, A○” value (^225Ac, Muscle) was 0.0024 kBq, the Absorbed dose/injected activity (^225Ac, Pancreas) was 0.0003 Gy/kBq and the “Accumulated activity/organ, A~” value (^225Ac, Pancreas) was 1.4271 kBq×h. The “Decay rate constant, λeff” value (^225Ac, Pancreas) was 0.0060 h⁻¹, the “Initial activity/organ, A○” value (^225Ac, Pancreas) was 0.0171 kBq and the Absorbed dose/injected activity (^225Ac, Salivary) was 0.0002 Gy/kBq. The “Accumulated activity/organ, A~” value (^225Ac, Salivary) was 0.8906 kBq×h, the “Decay rate constant, λeff” value (^225Ac, Salivary) was -0.0077 h⁻¹ and the “Initial activity/organ, A○” value (^225Ac, Salivary) was 0.0028 kBq. For the same compound, the Absorbed dose/injected activity (^225Ac, Skin) was 0.0001 Gy/kBq, the “Accumulated activity/organ, A~” value (^225Ac, Skin) was 0.8656 kBq×h and the “Decay rate constant, λeff” value (^225Ac, Skin) was -0.0092 h⁻¹. For the same compound, the “Initial activity/organ, A○” value (^225Ac, Skin) was 0.0023 kBq, the Absorbed dose/injected activity (^225Ac, Spleen) was 0.0001 Gy/kBq and the “Accumulated activity/organ, A~” value (^225Ac, Spleen) was 0.3228 kBq×h. For the same compound, the “Decay rate constant, λeff” value (^225Ac, Spleen) was 0.0062 h⁻¹, the “Initial activity/organ, A○” value (^225Ac, Spleen) was 0.0039 kBq and the Absorbed dose/injected activity (^225Ac, Stomach) was 0.0004 Gy/kBq. For the same compound, the “Accumulated activity/organ, A~” value (^225Ac, Stomach) was 2.6801 kBq×h, the “Decay rate constant, λeff” value (^225Ac, Stomach) was 0.0190 h⁻¹ and the “Initial activity/organ, A○” value (^225Ac, Stomach) was 0.0859 kBq. The “Total absorbed dose/injected activity” value (Blood) was 0.0002 Gy/kBq, the “Total absorbed dose/injected activity” value (Bone) was 0.0014 Gy/kBq and the “Total absorbed dose/injected activity” value (Brain) was 0.0004 Gy/kBq. For the same compound, the “Total absorbed dose/injected activity” value (Heart) was 0.0004 Gy/kBq, the “Total absorbed dose/injected activity” value (Intestine) was 0.0007 Gy/kBq and the “Total absorbed dose/injected activity” value (Kidney) was 0.0068 Gy/kBq. For the same compound, the “Total absorbed dose/injected activity” value (Liver) was 0.0059 Gy/kBq, the “Total absorbed dose/injected activity” value (Lung) was 0.0009 Gy/kBq and the “Total absorbed dose/injected activity” value (Muscle) was 0.0003 Gy/kBq. The “Total absorbed dose/injected activity” value (Pancreas) was 0.0011 Gy/kBq, the “Total absorbed dose/injected activity” value (Salivary) was 0.0008 Gy/kBq and the “Total absorbed dose/injected activity” value (Skin) was 0.0004 Gy/kBq. The “Total absorbed dose/injected activity” value (Spleen) was 0.0016 Gy/kBq and the “Total absorbed dose/injected activity” value (Stomach) was 0.0017 Gy/kBq.
